Biological target: the molecule itself
Test: FRET or BRET

B1: hOCT2 tagged with CFP or YFP at the N terminus (natural protein)
chain: MPTTVDDVLEHGGEFHFFQKQMFFLLALLSATFAPIYVGIVFLGFTPDHRCRSPGVAELSLRCGWSPAEELNYTVPGPGPAGEASPRQCRRYEVDWNQSTFDCVDPLASLDTNRSRLPLGPCRDGWVYETPGSSIVTEFNLVCANSWMLDLFQSSVNVGFFIGSMSIGYIADRFGRKLCLLTTVLINAAAGVLMAISPTYTWMLIFRLIQGLVSKAGWLIGYILITEFVGRRYRRTVGIFYQVAYTVGLLVLAGVAYALPHWRWLQFTVSLPNFFFLLYYWCIPESPRWLISQNKNAEAMRIIKHIAKKNGKSLPASLQRLRLEEETGKKLNPSFLDLVRTPQIRKHTMILMYNWFTSSVLYQGLIMHMGLAGDNIYLDFFYSALVEFPAAFMIILTIDRIGRRYPWAASNMVAGAACLASVFIPGDLQWLKIIISCLGRMGITMAYEIVCLVNAELYPTFIRNLGVHICSSMCDIGGIITPFLVYRLTNIWLELPLMVFGVLGLVAGGLVLLLPETKGKALPETIEEAENMQRPRKNKEKMIYLQVQKLDIPLN
Protein B1 has an NFRET of 0.176.

From article PMC4503226 (FASEB journal : official publication of the Federation of …, 2011)
